pKd: −log10 of the molar value.

The test concerns the target GluA2 AMPAR (expressed in HEK293T) (UniProt P23819). Kind of test: SPR. In general terms: In SPR one partner is held on a chip, and binding of the other changes the refractive index at the surface.
Chain of UniProt P23819 (P23819 25-883): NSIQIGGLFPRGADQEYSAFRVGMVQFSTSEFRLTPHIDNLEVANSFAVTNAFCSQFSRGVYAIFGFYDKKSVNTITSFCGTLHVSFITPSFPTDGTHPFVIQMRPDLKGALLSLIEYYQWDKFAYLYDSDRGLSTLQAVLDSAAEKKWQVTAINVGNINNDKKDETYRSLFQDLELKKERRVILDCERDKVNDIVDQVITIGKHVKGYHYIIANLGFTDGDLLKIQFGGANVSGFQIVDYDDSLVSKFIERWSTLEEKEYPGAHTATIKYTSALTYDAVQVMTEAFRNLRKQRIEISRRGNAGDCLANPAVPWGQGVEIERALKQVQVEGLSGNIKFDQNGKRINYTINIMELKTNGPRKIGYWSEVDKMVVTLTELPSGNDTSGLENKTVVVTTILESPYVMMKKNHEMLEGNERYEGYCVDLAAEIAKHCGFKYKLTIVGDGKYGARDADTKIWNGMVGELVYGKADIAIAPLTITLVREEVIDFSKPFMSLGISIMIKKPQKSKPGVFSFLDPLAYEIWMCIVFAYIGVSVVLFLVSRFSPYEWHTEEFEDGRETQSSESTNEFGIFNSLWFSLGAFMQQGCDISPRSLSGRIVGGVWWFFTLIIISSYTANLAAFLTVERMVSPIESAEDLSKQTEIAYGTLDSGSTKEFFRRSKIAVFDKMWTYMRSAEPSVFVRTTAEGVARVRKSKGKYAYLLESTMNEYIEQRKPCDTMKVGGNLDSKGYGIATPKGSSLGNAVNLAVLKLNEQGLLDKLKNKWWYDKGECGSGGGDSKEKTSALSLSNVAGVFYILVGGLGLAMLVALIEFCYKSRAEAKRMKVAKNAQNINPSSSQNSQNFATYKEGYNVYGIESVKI

On to “Noelin1-3 (untagged, expressed in HEK293T) (natural protein)”, for which the pKd was 9.00 and the koff came out at 0.002 s⁻¹.

Broadly, the pKd is −log10 of the Kd, conventionally taken in molar units. A lower pKd goes with a large Kd. As usually defined, the koff is the rate constant with which the complex falls apart. Low values mean slow dissociation, high ones fast dissociation.

Source of the values: paper PMC6088136.
